This is an account of results in article PMC10786919, “Design-rules for stapled peptides with in vivo activity and their application to Mdm2/X antagonists” (Nature Communications, 2024).

Common to all, as to experiment: fluorescence polarisation; competitive fluorescence anisotropy: unlabelled peptide titrated against 250 nM Mdm2 (1-125) with 50 nM FAM-labelled 12/1 peptide (FAM-…-NH2); PBS pH 7.4, 0.001% Tween-20; apparent Kd, geometric means
What all share (settings): both partners purified
A general note: Fluorescence polarisation rises when a labelled molecule tumbles more slowly, as on binding a larger partner.

The target of test [1] is T1, human Mdm2 1-125 (human).
T1 construct: Mdm2, human, residues 1-125; the stretch after the TEV site ENLYFQG of the fusion protein; source: E. coli BL21 (DE3) Rosetta T1R, purified (Ni-NTA, gel filtration)

Test [2] has as its target T1, human Mdm2 1-125. The source holds these as a separate data set.
Test [3] concerns the target T1, human Mdm2 1-125. This is another data set of the same source.
Test [4] addresses T1, human Mdm2 1-125. This is another data set of the same source.

Positions of bridges follow the written chain, without caps; N, C: chain ends. Non-standard residues stand in square brackets, D forms with d. Primed or numbered codes have the meaning given here. Trp(6-Cl) = N[C@@H](Cc1c[nH]c2cc(Cl)ccc12)C(=O)O; Lys(N3) = [N-]=[N+]=NCCCC[C@H](N)C(=O)O; R8 = C=CCCCCCC[C@@](C)(N)C(=O)O; S5 = C=CCCC[C@](C)(N)C(=O)O; Cba′ = not defined here; Aib = CC(C)(N)C(=O)O; βAla = NCCC(=O)O Where only a bound is given, the exact number is not on record here.

T1 sequence (chain, as listed by the source): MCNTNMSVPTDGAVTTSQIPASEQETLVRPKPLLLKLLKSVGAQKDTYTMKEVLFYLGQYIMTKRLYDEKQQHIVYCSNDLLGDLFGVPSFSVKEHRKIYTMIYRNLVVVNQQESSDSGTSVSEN

As for Ac-[Lys(N3)][βAla]VTF[R8]VYWVQ[Cba′][S5]SAA-NH2 (staple 6-13; reading uncertain) [AZIDE-ATSP-7041 (L1V, E5V, A8V)], the Kd in test [1] was 122 nM.

Take Ac-[Lys(N3)][βAla]KTF[R8]EYWAQ[Cba′][S5]SAA-NH2 (staple 6-13; reading uncertain) [AZIDE-ATSP-7041 (L1K)]: in test [2], the Kd came to 3.8 nM.

Ac-[Lys(N3)][βAla]LEF[R8]EYWAQ[Cba′][S5]SAA-NH2 (staple 6-13; reading uncertain) [AZIDE-ATSP-7041 (T2E)]: in test [3], the Kd was determined as 42.4 nM.

Ac-[Lys(N3)][βAla]RTF[R8]EYWAQ[Cba′][S5]SAA-NH2 (staple 6-13; reading uncertain) [AZIDE-ATSP-7041 (L1R)]: the Kd in test [4] was found to be 62.9 nM.

For the molecule Ac-[Lys(N3)][βAla]LTA[R8]EYWAQ[Cba′][S5]SAA-NH2 (staple 6-13; reading uncertain) [AZIDE-ATSP-7041 (F3A)], the Kd in test [2] turned out to be 13200 nM.

Ac-[Lys(N3)][βAla]LRF[R8]EYWAQ[Cba′][S5]SAA-NH2 (staple 6-13; reading uncertain) [AZIDE-ATSP-7041 (T2R)]: the Kd in test [4] was determined as 30.6 nM.

Turning to Ac-[Lys(N3)][βAla]LTF[R8]EYWEQ[Cba′][S5]SAA-NH2 (staple 6-13; reading uncertain) [AZIDE-ATSP-7041 (A8E)], the Kd in test [3] is 3.2 nM.

On to Ac-[Lys(N3)][βAla]LTF[R8]EYWAR[Cba′][S5]SAA-NH2 (staple 6-13; reading uncertain) [AZIDE-ATSP-7041 (Q9R)], for which, in test [4], the Kd came out at 45.9 nM.

As for Ac-[Lys(N3)][βAla]HTF[R8]EYWAQ[Cba′][S5]SAA-NH2 (staple 6-13; reading uncertain) [AZIDE-ATSP-7041 (L1H)], in test [3], the Kd worked out at 0.7 nM.

Ac-[Lys(N3)][βAla]LTF[R8]EYEAQ[Cba′][S5]SAA-NH2 (staple 6-13; reading uncertain) [AZIDE-ATSP-7041 (W7E)]: in test [3], the Kd was > 101000 nM.

For Ac-[Lys(N3)][βAla]LTF[R8]EYWKQ[Cba′][S5]SAA-NH2 (staple 6-13; reading uncertain) [AZIDE-ATSP-7041 (A8K)], the Kd in test [2] is 11.1 nM.

B1: AZIDE-ATSP-7041 (A13hR) (peptide)
chain: KXLTFXEYWAQXXSXA
modifications: homo-Arg (hR) at 13; N-terminal acetyl; Lys(N3) and beta-Ala before residue 1; R8 at 4 and S5 at 11 (olefin staple); Cba at 10; C-terminal amide
As to B1, the Kd in test [4] was determined as 42.5 nM.

B2: AZIDE-ATSP-7041 (T2hR) (peptide)
chain: KXLXFXEYWAQXXSAA
modifications: homo-Arg (hR) at 2; N-terminal acetyl; Lys(N3) and beta-Ala before residue 1; R8 at 4 and S5 at 11 (olefin staple); Cba at 10; C-terminal amide
Regarding B2, in test [4], the Kd came out at 2.8 nM.

B3: AZIDE-ATSP-7041 (Q9hR) (peptide)
chain: KXLTFXEYWAXXXSAA
modifications: homo-Arg (hR) at 9; N-terminal acetyl; Lys(N3) and beta-Ala before residue 1; R8 at 4 and S5 at 11 (olefin staple); Cba at 10; C-terminal amide
For B3, the Kd in test [4] was 28.5 nM.

B4: AZIDE-ATSP-7041 (S12hR) (peptide)
chain: KXLTFXEYWAQXXXAA
modifications: homo-Arg (hR) at 12; N-terminal acetyl; Lys(N3) and beta-Ala before residue 1; R8 at 4 and S5 at 11 (olefin staple); Cba at 10; C-terminal amide
As for B4, the Kd in test [4] amounted to 5 nM.

With Ac-[Lys(N3)][βAla]LTF[R8]EEWAQ[Cba′][S5]SAA-NH2 (staple 6-13; reading uncertain) [AZIDE-ATSP-7041 (Y6E)], the Kd in test [3] worked out at 5.1 nM.

For Ac-[Lys(N3)][βAla]LTF[R8]HYWAQ[Cba′][S5]SAA-NH2 (staple 6-13; reading uncertain) [AZIDE-ATSP-7041 (E5H)], in test [3], the Kd came out at 21.1 nM.

Consider Ac-[Lys(N3)][βAla]LTF[R8]EYWAK[Cba′][S5]SAA-NH2 (staple 6-13; reading uncertain) [AZIDE-ATSP-7041 (Q9K)], for which the Kd in test [2] amounted to 8.2 nM.

Consider Ac-[Lys(N3)][βAla]LHF[R8]EYWAQ[Cba′][S5]SAA-NH2 (staple 6-13; reading uncertain) [AZIDE-ATSP-7041 (T2H)], for which, in test [3], the Kd amounted to 64.2 nM.

As for Ac-[Lys(N3)][βAla]LTF[R8]EYWAQ[Cba′][S5]RAA-NH2 (staple 6-13; reading uncertain) [AZIDE-ATSP-7041 (S12R)], the Kd in test [4] was 78.7 nM.

In the case of Ac-[Lys(N3)][βAla]LTF[R8]EYWAQE[S5]SAA-NH2 (staple 6-13) [AZIDE-ATSP-7041 (CBA10E)], the Kd in test [3] was 312 nM.

As for Ac-[Lys(N3)][βAla]LTF[R8]EYWAH[Cba′][S5]SAA-NH2 (staple 6-13; reading uncertain) [AZIDE-ATSP-7041 (Q9H)], the Kd in test [3] is 9.6 nM.

As to Ac-[Lys(N3)][βAla]LAF[R8]EYWAQ[Cba′][S5]SAA-NH2 (staple 6-13; reading uncertain) [AZIDE-ATSP-7041 (T2A)], the Kd in test [2] stood at 80.5 nM.

Ac-[Lys(N3)][βAla]LTF[R8]EYWRQ[Cba′][S5]SAA-NH2 (staple 6-13; reading uncertain) [AZIDE-ATSP-7041 (A8R)]: the Kd in test [4] came to 69.4 nM.

B5: AZIDE-ATSP-7041 (E5hR) (peptide)
chain: KXLTFXXYWAQXXSAA
modifications: homo-Arg (hR) at 5; N-terminal acetyl; Lys(N3) and beta-Ala before residue 1; R8 at 4 and S5 at 11 (olefin staple); Cba at 10; C-terminal amide
As for B5, in test [4], the Kd stood at 35.5 nM.

As for Ac-[Lys(N3)][βAla]LTF[R8]KYWAQ[Cba′][S5]SAA-NH2 (staple 6-13; reading uncertain) [AZIDE-ATSP-7041 (E5K)], the Kd in test [2] worked out at 115 nM.

B6: AZIDE-ATSP-7041 (L1hR) (peptide)
chain: KXXTFXEYWAQXXSAA
modifications: homo-Arg (hR) at 1; N-terminal acetyl; Lys(N3) and beta-Ala before residue 1; R8 at 4 and S5 at 11 (olefin staple); Cba at 10; C-terminal amide
Regarding B6, the Kd in test [4] was 8.6 nM.

Consider Ac-[Lys(N3)][βAla][dL]TF[R8]AY[Trp(6-Cl)]AA[Cba′][S5]S[dA]A-NH2 (staple 6-13; reading uncertain) [AZIDE-ATSP-7041 (L1 TO D-LEU, E5A, Q9A, W7 TO 6-CLTRP, A13 TO D-ALA)], for which, in test [1], the Kd was 16.9 nM.

Ac-[Lys(N3)][βAla]LTF[R8]EYWAE[Cba′][S5]SAA-NH2 (staple 6-13; reading uncertain) [AZIDE-ATSP-7041 (Q9E)]: the Kd in test [3] came out at 34.6 nM.

For the molecule Ac-[Lys(N3)][βAla]LTF[R8]EYWAQ[Cba′][S5]S[Aib]A-NH2 (staple 6-13; reading uncertain) [AZIDE-ATSP-7041 (A13 TO AIB)], the Kd in test [3] amounted to 15.2 nM.

Regarding Ac-[Lys(N3)][βAla]LTE[R8]EYWAQ[Cba′][S5]SAA-NH2 (staple 6-13; reading uncertain) [AZIDE-ATSP-7041 (F3E)], the Kd in test [3] was found to be 11200 nM.

With Ac-[Lys(N3)][βAla]LTF[R8]EYWAQ[Cba′][S5]HAA-NH2 (staple 6-13; reading uncertain) [AZIDE-ATSP-7041 (S12H)], the Kd in test [3] was 4.5 nM.

B7: AZIDE-ATSP-7041 (A14hR) (peptide)
chain: KXLTFXEYWAQXXSAX
modifications: homo-Arg (hR) at 14; N-terminal acetyl; Lys(N3) and beta-Ala before residue 1; R8 at 4 and S5 at 11 (olefin staple); Cba at 10; C-terminal amide
B7: the Kd in test [4] worked out at 8.6 nM.

Ac-[Lys(N3)][βAla]LTF[R8]EYWAQ[Cba′][S5]KAA-NH2 (staple 6-13; reading uncertain) [AZIDE-ATSP-7041 (S12K)]: the Kd in test [2] turned out to be 39.7 nM.

For the molecule Ac-[Lys(N3)][βAla]LKF[R8]EYWAQ[Cba′][S5]SAA-NH2 (staple 6-13; reading uncertain) [AZIDE-ATSP-7041 (T2K)], in test [2], the Kd came to 5.4 nM.

For Ac-[Lys(N3)][βAla]LTF[R8]RYWAQ[Cba′][S5]SAA-NH2 (staple 6-13; reading uncertain) [AZIDE-ATSP-7041 (E5R)], the Kd in test [4] was determined as 33 nM.

In the case of Ac-[Lys(N3)][βAla]ATF[R8]EYWAQ[Cba′][S5]SAA-NH2 (staple 6-13; reading uncertain) [AZIDE-ATSP-7041 (L1A)], the Kd in test [2] is 10.7 nM.
